Four sequences from the supplement of paper PMC5998384 can be followed below.

For data set [1], the system named is HeLa Kyoto. Kind of data set: thermal stability score vs G1/S (z-score of summed log2 fold changes over temperatures); higher = more thermally stable than in G1/S.
For data set [2], the system named is HeLa Kyoto. Kind of data set: solubility in G1/S (NP-40 vs SDS abundance) (log2 ratio); higher = more soluble. The note with it: cell cycle stage: G1/S.
For data set [3], the system named is HeLa Kyoto. The experiment in a line: solubility change mitosis vs G1/S (difference of NP-40 vs SDS log2 ratios) (log2 ratio difference); higher = more soluble in mitosis.
The test system of data set [4] is HeLa Kyoto. The experiment in a line: melting temperature (median over replicates), in situ; higher = more thermally stable.
Where [5] appears, read: cell cycle stage: early G1 (4.5 h after nocodazole release).
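Wherever melting temperature (median over replicates), in situ is given: HeLa Kyoto cells synchronized by double thymidine or nocodazole block, proteins quantified by TMT10plex mass spectrometry, three independent biological replicates.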
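Wherever solubility change mitosis vs G1/S (difference of NP-40 vs SDS log2 ratios) is given: synchronized HeLa Kyoto cells (double thymidine block for G1/S, nocodazole release for mitosis), protein amounts in NP-40 versus SDS lysates quantified by mass spectrometry, three biological replicates.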
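Wherever solubility in G1/S (NP-40 vs SDS abundance) is given: HeLa Kyoto cells arrested at G1/S by double thymidine block, proteins quantified by TMT10plex mass spectrometry in mild NP-40 versus SDS extracts, three biological replicates.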
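Wherever thermal stability score vs G1/S (z-score of summed log2 fold changes over temperatures) is given: synchronized HeLa Kyoto cells, proteins quantified by TMT10plex mass spectrometry, three biological replicates, mitosis taken 0.5 h after nocodazole release, G1/S directly after double thymidine block.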

On to “MEVPPRLSHVPPPLFPSAPATLASRSLSHWRPRPPRQLAPLLPSLAPSSARQGARRAQRHVTAQQPSRLAGGAAIKGGRRRRPDLFRRHFKSSSIQRSAAAAAATRTARQHPPADSSVTMEDMNEYSNIEEFAEGSKINASKNQQDDGKMFIGGLSWDTSKKDLTEYLSRFGEVVDCTIKTDPVTGRSRGFGFVLFKDAASVDKVLELKEHKLDGKLIDPKRAKALKGKEPPKKVFVGGLSPDTSEEQIKEYFGAFGEIENIELPMDTKTNERRGFCFITYTDEEPVKKLLESRYHQIGSGKCEIKVAQPKEVYRQQQQQQKGGRGAAAGGRGGTRGRGRGQGQNWNQGFNNYYDQGYGNYNSAYGGDQNYSGYGGYDYTGYNYGNYGYGQGYADYSGQQSTYGKASRGGGNHQNNYQPY [HNRNPDL]”, for which the thermal stability score in the data set on HeLa Kyoto [1] (setting [5]) is 0.0293; in the data set with HeLa Kyoto [1] (cell cycle stage: mitosis), -2.51. Moreover, in the data set on HeLa Kyoto [2], the “solubility in G1/S (log2)” value was -0.122. Besides, the “solubility change mitosis (log2)” value in the data set with HeLa Kyoto [3] worked out at 0.352. Besides, the melting temperature in the data set with HeLa Kyoto [4] (cell cycle stage: G1/S) amounted to 54.4 °C; with HeLa Kyoto [4] (cell cycle stage: mitosis), 53.6 °C.
For the sequence “MEVTGDAGVPESGEIRTLKPCLLRRNYSREQHGVAASCLEDLRSKACDILAIDKSLTPVTLVLAEDGTIVDDDDYFLCLPSNTKFVALASNEKWAYNNSDGGTAWISQESFDVDETDSGAGLKWKNVARQLKEDLSSIILLSEEDLQMLVDAPCSDLAQELRQSCATVQRLQHTLQQVLDQREEVRQSKQLLQLYLQALEKEGSLLSKQEESKAAFGEEVDAVDTGISRETSSDVALASHILTALREKQAPELSLSSQDLELVTKEDPKALAVALNWDIKKTETVQEACERELALRLQQTQSLHSLRSISASKASPPGDLQNPKRARQDPT [DFFA]”, the thermal stability score is -1.44 with HeLa Kyoto [1] (setting [5]) and -0.858 in the data set with HeLa Kyoto [1] (cell cycle stage: mitosis). Besides, the “solubility in G1/S (log2)” value in the data set with HeLa Kyoto [2] came out at 0.392. The “solubility change mitosis (log2)” value with HeLa Kyoto [3] amounted to 0.0192. Moreover, the melting temperature was 54.2 °C in the data set on HeLa Kyoto [4] (cell cycle stage: G1/S) and 54.5 °C in the data set with HeLa Kyoto [4] (cell cycle stage: mitosis).
Consider “MEWGSESAAVRRHRVGVERREGAAAAPPPEREARAQEPLVDGCSGGGRTRKRSPGGSGGASRGAGTGLSEVRAALGLALYLIALRTLVQLSLQQLVLRGAAGHRGEFDALQARDYLEHITSIGPRTTGSPENEILTVHYLLEQIKLIEVQSNSLHKISVDVQRPTGSFSIDFLGGFTSYYDNITNVVVKLEPRDGAQHAVLANCHFDSVANSPGASDDAVSCSVMLEVLRVLSTSSEALHHAVIFLFNGAEENVLQASHGFITQHPWASLIRAFINLEAAGVGGKELVFQTGPENPWLVQAYVSAAKHPFASVVAQEVFQSGIIPSDTDFRIYRDFGNIPGIDLAFIENGYIYHTKYDTADRILTDSIQRAGDNILAVLKHLATSDMLAAASKYRHGNMVFFDVLGLFVIAYPSRIGSIINYMVVMGVVLYLGKKFLQPKHKTGNYKKDFLCGLGITLISWFTSLVTVLIIAVFISLIGQSLSWYNHFYVSVCLYGTATVAKIILIHTLAKRFYYMNASAQYLGEVFFDISLFVHCCFLVTLTYQGLCSAFISAVWVAFPLLTKLCVHKDFKQHGAQGKFIAFYLLGMFIPYLYALYLIWAVFEMFTPILGRSGSEIPPDVVLASILAGCTMILSSYFINFIYLAKSTKKTMLTLTLVCAITFLLVCSGTFFPYSSNPANPKPKRVFLQHMTRTFHDLEGNAVKRDSGIWINGFDYTGISHITPHIPEINDSIRAHCEENAPLCGFPWYLPVHFLIRKNWYLPAPEVSPRNPPHFRLISKEQTPWDSIKLTFEATGPSHMSFYVRAHKGSTLSQWSLGNGTPVTSKGGDYFVFYSHGLQASAWQFWIEVQVSEEHPEGMVTVAIAAHYLSGEDKRSPQLDALKEKFPDWTFPSAWVCTYDLFVF [ERMP1]”, for which the thermal stability score was -3 in the data set on HeLa Kyoto [1] (setting [5]) and -4.39 in the data set on HeLa Kyoto [1] (cell cycle stage: mitosis). The “solubility in G1/S (log2)” value in the data set on HeLa Kyoto [2] is -0.0493. Further, the “solubility change mitosis (log2)” value in the data set on HeLa Kyoto [3] is -0.18. Also, the melting temperature in the data set with HeLa Kyoto [4] (cell cycle stage: G1/S) was 58.8 °C; in the data set on HeLa Kyoto [4] (cell cycle stage: mitosis), 56.7 °C.
“MEWWASSPLRLWLLLFLLPSAQGRQKESGSKWKVFIDQINRSLENYEPCSSQNCSCYHGVIEEDLTPFRGGISRKMMAEVVRRKLGTHYQITKNRLYRENDCMFPSRCSGVEHFILEVIGRLPDMEMVINVRDYPQVPKWMEPAIPVFSFSKTSEYHDIMYPAWTFWEGGPAVWPIYPTGLGRWDLFREDLVRSAAQWPWKKKNSTAYFRGSRTSPERDPLILLSRKNPKLVDAEYTKNQAWKSMKDTLGKPAAKDVHLVDHCKYKYLFNFRGVAASFRFKHLFLCGSLVFHVGDEWLEFFYPQLKPWVHYIPVKTDLSNVQELLQFVKANDDVAQEIAERGSQFIRNHLQMDDITCYWENLLSEYSKFLSYNVTRRKGYDQIIPKMLKTEL [POGLUT1]”: the thermal stability score in the data set on HeLa Kyoto [1] (setting [5]) turned out to be 2.61; in the data set on HeLa Kyoto [1] (cell cycle stage: mitosis), 3.25. For the same sequence, the “solubility in G1/S (log2)” value in the data set on HeLa Kyoto [2] is 0.28. Besides, the “solubility change mitosis (log2)” value in the data set on HeLa Kyoto [3] was -0.0965. In addition, the figures for the melting temperature with HeLa Kyoto [4] (cell cycle stage: G1/S) and with HeLa Kyoto [4] (cell cycle stage: mitosis) were 52.9 °C and 54 °C, respectively.
